One experiment addresses HA-GSK3β (wild-type) (UniProt P49841). Kind of experiment: co-IP; HEK293T transfected with HA-GSK3β-WT; anti-HA beads washed in TBS, then RNase A treatment (200 μg/ml) for 15 min at 4°C; blots for p72, DGCR8, Drosha and HA.
The target in the next experiment is HA-GSK3β-K85R (UniProt P49841). The experiment in a line: co-IP; HEK293T transfected with HA-GSK3β-WT, -S9A, -K85R or -K85A,K86A; lysates pre-cleared, EZView anti-HA agarose beads, 4°C overnight; blots for p72, DGCR8 and HA.

Substance “p72 (DDX17) (endogenous) (natural protein)” returned a percent reduction of co-precipitation after RNase A treatment with HA-GSK3β (wild-type) of more than 50%. This substance came in with a percent reduction of co-precipitation against GSK3β-WT with HA-GSK3β-K85R of 60%.

Source of the values: article PMC5389555.
